Sequences and labels used below:
B1: CD3 × CD33-BspAb117 (bispecific antibody)
scFv-Fc: NFMLTQPHSVSESPGKTVTISCTRSSGSIASNYVQWYQQRPGSSPTSVIYEDNQRPSGVPDRFSGSIDSSSNSASLTISGLKTEDEADYYCQSYDRSNRVFGCGTKLTVLGGGGSGGGGSGGGGSGGGGSEVQLVESGGGLVKPGGSLRLSCAASGLTFSTYSMNWVRQAPGKCLEWVSSISSSGSYVYYADSVKGRFTMSRDNAKNSLYLQMNSLRAEDTAVYYCARERRELLFDYWGQGTLVTVSSGGGGSDKTHTCPPCPAPEFEGGPSVFLFPPKPKDTLMISRTPEVTCVVVDVSHEDPEVKFNWYVDGVEVHNAKTKPREEQYNSTYRVVSVLTVLHQDWLNGKEYKCKVSNKALPASIEKTISKAKGQPREPQVYTLPPCREEMTKNQVSLWCLVKGFYPSDIAVEWESNGQPENNYKTTPPVLDSDGSFFLYSKLTVDKSRWQQGNVFSCSVMHEALHNHYTQKSLSLSPGK
heavy: EVQLVQSGAEVKKPGSSVKVSCKASGYTITDSNIHWVRQAPGQSLEWIGYIYPYNGGTDYNQKFKNRATLTVDNPTNTAYMELSSLRSEDTAFYYCVNGNPWLAYWGQGTLVTVSSASTKGPSVFPLAPSSKSTSGGTAALGCLVKDYFPEPVTVSWNSGALTSGVHTFPAVLQSSGLYSLSSVVTVPSSSLGTQTYICNVNHKPSNTKVDKRVEPKSCDKTHTCPPCPAPEFEGGPSVFLFPPKPKDTLMISRTPEVTCVVVDVSHEDPEVKFNWYVDGVEVHNAKTKPREEQYNSTYRVVSVLTVLHQDWLNGKEYKCKVSNKALPASIEKTISKAKGQPREPQVCTLPPSREEMTKNQVSLSCAVKGFYPSDIAVEWESNGQPENNYKTTPPVLDSDGSFFLVSKLTVDKSRWQQGNVFSCSVMHEALHNRFTQKSLSLSPGK
light: DIQLTQSPSTLSASVGDRVTITCRASESLDNYGIRFLTWFQQKPGKAPKLLMYAASNQGSGVPSRFSGSGSGTEFTLTISSLQPDDFATYYCQQTKEVPWSFGQGTKVEVKRTVAAPSVFIFPPSDEQLKSGTASVVCLLNNFYPREAKVQWKVDNALQSGNSQESVTEQDSKDSTYSLSSTLTLSKADYEKHKVYACEVTHQGLSSPVTKSFNRGEC
notes: KiH heterodimer
B2: CD3 × CD33-BspAb118 (bispecific antibody)
scFv-Fc: FMLTQPHSVSESPGKTVTISCTRSSGSIASNYVQWYQQRPGSSPTTVIYEDNQRPSGVPDRFSGSIDSSSNSASLTISGLQTEDEADYYCQSYDSSNRVFGCGTKLTVLGGGGSGGGGSGGGGSGGGGSEVQLVESGGGLVKPGGSLRLSCVASGFTFSRYSMNWVRQAPGKCLEWVSSISSSSRYTYYADSLKGRFIMSRDNAKNSLFLQMNSLRAEDTAVYYCARNLYNALDYWGQGTLVTVSSGGGGSDKTHTCPPCPAPEFEGGPSVFLFPPKPKDTLMISRTPEVTCVVVDVSHEDPEVKFNWYVDGVEVHNAKTKPREEQYNSTYRVVSVLTVLHQDWLNGKEYKCKVSNKALPASIEKTISKAKGQPREPQVYTLPPCREEMTKNQVSLWCLVKGFYPSDIAVEWESNGQPENNYKTTPPVLDSDGSFFLYSKLTVDKSRWQQGNVFSCSVMHEALHNHYTQKSLSLSPGK
heavy: B1 heavy
light: B1 light
notes: KiH heterodimer
B3: CD3 × CD33-BspAb121 (bispecific antibody)
chain 1: QTVVTQEPSLTVSPGGTVTLTCASSTGAVTSGYYPNWFQQKPGQAPRALIYSTSNKHSWTPARFSGSLLGGKAALTLSGVQPEDEAEYYCLLYYGGAYVFGCGTKVTVLGGGGSGGGGSGGGGSGGGGSEVQLVESGGGLVKPGGSLRLSCAASGFTFSSYSMNWVRQAPGKCLEWVSSISRSGTYIYYADSVKGRFTISRDNAKNSLYLQMNSLRAEDTAVYYCARERWELLYFDYWGQGTLVTVSSDKTHTCPPCPAPEFEGGPSVFLFPPKPKDTLMISRTPEVTCVVVDVSHEDPEVKFNWYVDGVEVHNAKTKPREEQYNSTYRVVSVLTVLHQDWLNGKEYKCKVSNKALPASIEKTISKAKGQPREPQVYTLPPCREEMTKNQVSLWCLVKGFYPSDIAVEWESNGQPENNYKTTPPVLDSDGSFFLYSKLTVDKSRWQQGNVFSCSVMHEALHNHYTQKSLSLSPGK
chain 2: B1 heavy
chain 3: B1 light
B4: CD3 × CD33-BspAb124 (bispecific antibody)
chain 1: not shown
chain 2: B1 heavy
chain 3: B1 light
B5: CD3 × CD33-BspAb122 (bispecific antibody)
chain 1: QTVVTQEPSFSVSPGGTVTLTCGLSSGSVSTSYYPSWYQQTPGQAPRTLIYSTNTRSSGVPDRFSGSILGNKAALTITGAQADDESDYYCVLYMGSGIWVFGCGTKLTVLGGGGSGGGGSGGGGSGGGGSEVQLVESGGGLVKPGGSLRLSCAASGFTVSNYSMNWVRQAPGKCLEWVSSISRSSSYIYYADSVKGRFTISRDNAKNSLFLQMNSLRAEDTAVYYCARERWELLYFDYWGQGTLVTVSSDKTHTCPPCPAPEFEGGPSVFLFPPKPKDTLMISRTPEVTCVVVDVSHEDPEVKFNWYVDGVEVHNAKTKPREEQYNSTYRVVSVLTVLHQDWLNGKEYKCKVSNKALPASIEKTISKAKGQPREPQVYTLPPCREEMTKNQVSLWCLVKGFYPSDIAVEWESNGQPENNYKTTPPVLDSDGSFFLYSKLTVDKSRWQQGNVFSCSVMHEALHNHYTQKSLSLSPGK
chain 2: B1 heavy
chain 3: B1 light
B6: CD3 × CD33-BspAb123 (bispecific antibody)
chain 1: QTVVTQEPSFSVSPGGTVTLTCGLNSGSVSTSYYPSWYQQTPGQTPRTLIYSTNTRSSGVPDRFSGSILGNKAALTITGAQADDESDYYCVLYMGSGIWVFGCGTKLTVLGGGGSGGGGSGGGGSGGGGSQVQLVQSGAEVKKPGASLKVSCKASGYTFTSYYMHWVRQAPGQCLEWMGIINPSNGNTISAQKFQGRVTMTRDTSTSTVYMEMSSLRSEDTAVYYCVRSWGYYVMDVWGQGTTVTVSSDKTHTCPPCPAPEFEGGPSVFLFPPKPKDTLMISRTPEVTCVVVDVSHEDPEVKFNWYVDGVEVHNAKTKPREEQYNSTYRVVSVLTVLHQDWLNGKEYKCKVSNKALPASIEKTISKAKGQPREPQVYTLPPCREEMTKNQVSLWCLVKGFYPSDIAVEWESNGQPENNYKTTPPVLDSDGSFFLYSKLTVDKSRWQQGNVFSCSVMHEALHNHYTQKSLSLSPGK
chain 2: B1 heavy
chain 3: B1 light
B7: CD3 × CD33-BspAb120 (bispecific antibody)
chain 1: NFMLTQPHSVSESPGKTVAISCTRSSGSIASNYVQWYQQRPGSSPTAVIYEDNQRPSGVPDRFSGSIDSSSNSAFLTISGLKTEDEADYYCQSYDSSNRVFGCGTKLTVLGGGGSGGGGSGGGGSGGGGSEVQLVESGGGLVKPGGSLRLSCAASGFTFSSYSMNWVRQAPGKCLEWVSSISRSSGYIFYADSVKGRFTISRDNAKNSLYLQMNSLRAEDTAVYYCVRERVGAGFDYWGQGTLVTVSSDKTHTCPPCPAPEFEGGPSVFLFPPKPKDTLMISRTPEVTCVVVDVSHEDPEVKFNWYVDGVEVHNAKTKPREEQYNSTYRVVSVLTVLHQDWLNGKEYKCKVSNKALPASIEKTISKAKGQPREPQVYTLPPCREEMTKNQVSLWCLVKGFYPSDIAVEWESNGQPENNYKTTPPVLDSDGSFFLYSKLTVDKSRWQQGNVFSCSVMHEALHNHYTQKSLSLSPGK
chain 2: B1 heavy
chain 3: B1 light

The target of one experiment is T1, human CD3 (TCR/CD3 complex on the cell surface) (human, UniProt P07766 23-207; P04234 22-171; P09693 23-182).
T1 construct: whole, on cells; Native CD3 on human Pan-T cells or Jurkat wild-type cells; also called CD3 on Pan-T cells; CD3 on Jurkat WT cells
T1 sequence (P07766 23-207, chain 1 of 3): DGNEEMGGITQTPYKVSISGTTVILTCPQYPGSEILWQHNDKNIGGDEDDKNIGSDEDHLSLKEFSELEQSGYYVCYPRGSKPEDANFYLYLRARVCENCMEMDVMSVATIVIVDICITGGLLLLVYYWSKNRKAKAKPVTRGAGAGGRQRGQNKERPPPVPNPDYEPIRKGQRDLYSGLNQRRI
T1 sequence (P04234 22-171, chain 2 of 3): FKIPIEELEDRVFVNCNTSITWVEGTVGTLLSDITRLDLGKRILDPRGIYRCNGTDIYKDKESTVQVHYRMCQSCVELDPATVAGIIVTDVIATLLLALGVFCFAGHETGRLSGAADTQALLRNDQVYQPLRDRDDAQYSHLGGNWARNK
T1 sequence (P09693 23-182, chain 3 of 3): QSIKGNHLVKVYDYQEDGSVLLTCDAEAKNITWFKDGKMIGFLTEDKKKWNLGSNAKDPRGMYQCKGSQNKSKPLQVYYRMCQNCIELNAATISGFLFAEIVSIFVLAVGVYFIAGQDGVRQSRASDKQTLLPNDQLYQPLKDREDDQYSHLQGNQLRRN
The experiment is described as follows: flow cytometry, Pan-T cells, 1 ug/mL. For orientation: In flow cytometry, cells or beads pass a laser one at a time.
For the molecule B1, the “% Positive” value stood at 99.6% and the gMFI stood at 70300 gMFI.

In the case of B2, the “% Positive” value is 99.3% and the gMFI turned out to be 331000 gMFI.

As for B3, the “% Positive” value was 1.5% and the gMFI was found to be 1920 gMFI.

Turning to B4, the “% Positive” value was 1.5% and the gMFI was determined as 1950 gMFI.

As for B5, the “% Positive” value was 1.9% and the gMFI is 2080 gMFI.

Regarding B6, the “% Positive” value amounted to 1.8% and the gMFI amounted to 1860 gMFI.

As for B7, the “% Positive” value stood at 95.2% and the gMFI stood at 27600 gMFI.

The target in a further experiment is T1, human CD3 (TCR/CD3 complex on the cell …). Briefly: flow cytometry, Pan-T cells, 10 ug/mL.
As to B1, the “% Positive” value was found to be 99.7% and the gMFI was 195000 gMFI.

With B2, the “% Positive” value was 99.8% and the gMFI was 370000 gMFI.

As for B3, the “% Positive” value stood at 1.5% and the gMFI was determined as 1920 gMFI.

With B4, the “% Positive” value was 1% and the gMFI turned out to be 1970 gMFI.

On to B5, for which the “% Positive” value worked out at 1% and the gMFI stood at 2020 gMFI.

In the case of B6, the “% Positive” value stood at 1.4% and the gMFI came to 1920 gMFI.

For B7, the “% Positive” value turned out to be 99.3% and the gMFI stood at 87700 gMFI.

For the next experiment the target is unchanged. The experiment is described as follows: flow cytometry, Jurkat WT cells, 1 ug/mL.
In turn, B1 gave a gMFI of 29700 gMFI.

B2 had a gMFI of 56300 gMFI.

B3 had a gMFI of 1920 gMFI.

Regarding B4, the gMFI is 1800 gMFI.

B5 had a gMFI of 1910 gMFI.

For the molecule B6, the gMFI was 1680 gMFI.

In the case of B7, the gMFI amounted to 8730 gMFI.

The target is the same in a further experiment. The experiment is described as follows: flow cytometry, Jurkat WT cells, 10 ug/mL.
As to B1, the gMFI amounted to 38600 gMFI.

For the molecule B2, the gMFI came to 65000 gMFI.

On to B3, for which the gMFI is 2040 gMFI.

B4 came in with a gMFI of 1790 gMFI.

As to B5, the gMFI was determined as 1980 gMFI.

Molecule B6 returned a gMFI of 1710 gMFI.

B7 displayed a gMFI of 14600 gMFI.

For a further experiment the target is unchanged. The experiment is described as follows: flow cytometry, Jurkat WT gMFI over Jurkat KO gMFI, 1 ug/mL.
Regarding B1, the “Jurkat WT/KO (Fold)” value is 8.7 fold.

For the molecule B2, the “Jurkat WT/KO (Fold)” value is 12.3 fold.

As for B3, the “Jurkat WT/KO (Fold)” value was 0.8 fold.

With B4, the “Jurkat WT/KO (Fold)” value is 0.9 fold.

Regarding B5, the “Jurkat WT/KO (Fold)” value amounted to 0.8 fold.

Take B6: the “Jurkat WT/KO (Fold)” value is 0.9 fold.

Turning to B7, the “Jurkat WT/KO (Fold)” value amounted to 3.7 fold.

The next experiment shares this target. Briefly: flow cytometry, Jurkat WT gMFI over Jurkat KO gMFI, 10 ug/mL.
Turning to B1, the “Jurkat WT/KO (Fold)” value amounted to 10.6 fold.

Turning to B2, the “Jurkat WT/KO (Fold)” value was 13.8 fold.

Consider B3, for which the “Jurkat WT/KO (Fold)” value came to 1 fold.

With B4, the “Jurkat WT/KO (Fold)” value was found to be 0.9 fold.

For the molecule B5, the “Jurkat WT/KO (Fold)” value turned out to be 1 fold.

Regarding B6, the “Jurkat WT/KO (Fold)” value is 0.8 fold.

With B7, the “Jurkat WT/KO (Fold)” value came to 6.1 fold.

For the origin of these results see patent US20260167721A1 (ABLEXIS, published 2026).
